# Source: US9783615B2, “Combination treatment of cancer” (UNIVERSITÉ DE LIÈGE, priority 2012, dated 2017)
# Residue numbers refer to the chain shown, from its start. Entries after “also recorded” stand apart in the source; their conditions may differ.
# T1: recombinant MT4-CAT protein (Homo sapiens, UniProt Q9ULZ9)
# T1 construct: Enzymatic activity of the recombinant catalytic domain of MT4-MMP (MT4CAT) was monitored
# T1 sequence (Q9ULZ9 126-295 limits assumed): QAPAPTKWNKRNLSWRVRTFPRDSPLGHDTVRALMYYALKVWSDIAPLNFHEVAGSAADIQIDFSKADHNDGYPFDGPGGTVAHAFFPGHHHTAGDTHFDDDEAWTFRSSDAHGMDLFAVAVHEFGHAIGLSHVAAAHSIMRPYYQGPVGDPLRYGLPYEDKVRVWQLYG
# T2: recombinant wild-type MT4-MMP (Homo sapiens, UniProt Q9ULZ9)
# T2 construct: made in house
# T2 sequence (Q9ULZ9 126-565): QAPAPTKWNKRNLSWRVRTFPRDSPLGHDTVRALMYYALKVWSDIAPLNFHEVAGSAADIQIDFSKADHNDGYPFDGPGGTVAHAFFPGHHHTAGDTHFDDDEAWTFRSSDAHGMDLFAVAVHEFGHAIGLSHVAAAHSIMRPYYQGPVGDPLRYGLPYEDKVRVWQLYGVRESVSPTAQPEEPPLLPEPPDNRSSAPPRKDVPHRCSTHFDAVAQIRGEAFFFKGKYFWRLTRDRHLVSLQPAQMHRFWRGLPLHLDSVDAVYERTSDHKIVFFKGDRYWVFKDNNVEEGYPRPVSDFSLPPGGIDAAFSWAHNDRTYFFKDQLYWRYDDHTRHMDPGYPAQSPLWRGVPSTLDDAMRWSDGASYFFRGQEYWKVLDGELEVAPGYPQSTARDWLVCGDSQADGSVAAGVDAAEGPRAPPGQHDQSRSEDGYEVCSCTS
# T3: inactive mutated form of MT4-MMP (E249A) (Homo sapiens, UniProt Q9ULZ9, E249A)
# T3 sequence (Q9ULZ9 126-565 E249A): T2 sequence (Q9ULZ9 126-565) with E124A
# T4: recombinant catalytic domain of MT4-MMP (MT4CAT) (Homo sapiens, UniProt Q9ULZ9)
# T4 construct: Enzymatic activity of the recombinant catalytic domain of MT4-MMP (MT4CAT) was monitored
# T4 sequence (Q9ULZ9 126-295 limits assumed): T1 sequence (Q9ULZ9 126-295 limits assumed)
# T5: active wild type recombinant MT4-MMP (Homo sapiens, UniProt Q9ULZ9)
# T5 construct: made in house
# T5 sequence (Q9ULZ9 126-565): T2 sequence (Q9ULZ9 126-565)
# T6: MT4-MMP inactivated by mutation in its catalytic site (E249A) (Homo sapiens, UniProt Q9ULZ9, E249A)
# T6 sequence (Q9ULZ9 126-565 E249A): T2 sequence (Q9ULZ9 126-565) with E124A
# B1: K4H7: human scFv antibody that specifically binds and neutralizes MT4-MMP; VH SEQ ID NO: 26, VL SEQ ID NO: 27, complete scFv SEQ ID NO: 28 (protein)
# scFv: QVQLVQSGGGLVKPGRSLRLSCTASGFTFGDYAMSWFRQAPGKGLEWVGFIRSKAYGGTTEYAASVKGRFTISRDDSKSIAYLQMNSLKTEDTAVYYCTRGSSGWFLNWFDPWGQGTLVTVSSLEGGGGSGGGGSGGGGSELETTLTQSPATLSLSPGERATLSCRASQSISSSYLAWYQHKPGQAPRLLIYGASRRATGIPDRFSGSGSGTDFSLTISRLEPEDFAVYYCLHYGSSKWTFGQGTKVEIKR
# What was measured:
# [1] = system: MDA-MB231 cells expressing MT4-MMP; assay: In vitro 3D Matrigel proliferation assay with DNA quantification; assay type: cell-based, human; settings: 7 days; for effect on MT4-MMP-mediated mitogenic effect (cell proliferation, DNA content): 3D Matrigel matrix, signaling pathway inhibitors added to the culture medium
# Protocol: The medium was changed every three days.
# Inhibition of MT4-MMP-dependent mitogenic effect of cancer cells was performed in 3D culture matrix. […] The medium was changed every three days.
# [2] = system: MDA-MB 231 control (CTR) cells; settings: 3D Matrigel matrix, 7 days
# Protocol: Matrigel® mixed with an equal volume of culture medium was coated onto 24-well plates (300 μl/plate). Cells (104) suspended in 250 μl of medium were mixed with the same volume of cold Matrigel® and seeded on the previously coated Matrigel® layer. In some assays, growth factor-free Matrigel® was used (BD, Bioscience). For signaling pathway inhibition in the 3D culture model, cells were incubated in Matrigel® matrix and 24 h later several inhibitors were added to the culture medium at the indicated concentrations:
# SB203580, Genistein, U0126, Wortmannin, PP2, SP600125, AG538 (Sigma), PD0332991 (Axon Medchem, Groningen, The Nederlands), MDL-12, GF109203x, AG1478 (Calbiochem, Gibbstown, N.J.). The medium was changed every three days. After 7 days, cells were recovered from 3D cultures upon treatment with 500 μl of Dispase (BD, Bioscience) for 2 h at 37° C. After two washes in PBS, cell pellet was diluted in PBS (1 ml) and sonicated.
# MT1-MMP (MMP14) = target: T7, MT1-MMP (MMP14) (Homo sapiens, UniProt P50281); assay: Antibody specificity by Western blot; assay type: binding
# T7 construct: but not to MT1-MMP, MT3-MMP and MMP 2 catalytic domains
# [3] = target: T1, recombinant MT4-CAT protein; assay: Antibody affinity on immobilized protein in 96 well-plates (absorbance at 450 nm); assay type: binding; settings: 0-3 μg of MT4-CAT per well
# Protocol: For determining antibody affinity recombinant MT4-CAT protein and BSA (background) was immobilized on 96 well-plates [0-3 μg of MT4-CAT in 15 mM Na-bicarbonate (pH 9.6)/well] for 18 h, at +4° C. Non-specific blockage was carried out by incubation of 3% (w/v) BSA/PBS, 0.01% (v/v) Tween-20, for 1 h, at +4° C. The detection of the bound antibody was carried out with 1:2000 diluted mouse anti-myc antibody (clone 9E10, Sigma M5546) incubated for 1 h, at room temperature, followed by 15 min incubation with HRP-conjugated anti-mouse antibody. After adding TMB substrate, the absorbance was measured at 450 nm Multiskan FC (Thermo Scientific, Rockford, USA).
# MMP2 = assay: Antibody specificity by Western blot; assay type: binding
# [4] = target: T2, recombinant wild-type MT4-MMP; assay: Antibody specificity by ELISA; assay type: binding; settings: 3 μg protein
# From the text: (§1) The specificity of K4H7 antibody evaluated by ELISA. […] BSA (column 2) and the absence of protein (column 1: blank) were used as control.
# [5] = target: T3, inactive mutated form of MT4-MMP (E249A); assay: Antibody specificity by ELISA; assay type: binding
# From the text: as §1
# [6] = target: T4, recombinant catalytic domain of MT4-MMP (MT4CAT); assay: Inhibition of MT4-MMP enzymatic activity: cleavage of quenched fluorogenic peptide substrate (TACE substrate M-2255); assay type: biochemical; settings: scFV clones at 14 nM; substrate 30 μM
# Protocol: Inhibition of enzymatic activity of MT4-MMP was quantified by measuring the cleavage of quenched fluorogenic peptide substrate by the recombinant catalytic domain of MT4-MMP (MT4-CAT) in the presence or absence of MT4-MMP blocking antibodies (scFV). MT4-CAT (4.5 μM) was pre-incubated with MT4-MMP blocking antibodies (14 nM) for 30 min at 4° C. in buffer containing (50 mM Tris-HCl (pH 7.4); 5 mM CaCl2; ZnCl2 1 μM; 0.005%, Brij, 2% DMSO) before incubation with 30 μM of the fluorogenic substrate (pro-tumor necrosis factor-α converting enzyme (TACE) fluorogenic peptide substrate; Mca-(endo-1a-Dap(Dnp))-TNF-α (−5 to +6) amide (human), M-2255, Bachem AG, Switzerland).
# Neutralizing capacity of antibodies. The enzymatic activity of the recombinant catalytic domain of MT4-MMP (MT4CAT) was monitored by the cleavage of quenched fluorogenic peptide substrate pro-tumor necrosis factor-α converting enzyme (TACE) (M-2255, BACHEM) and using Luminescence spectrometer (SPECTRA MAX; GIMINI). […] The cleavage of quenched fluorogenic peptide was monitored by measuring relative fluorescence units (RFU) during the incubation time (seconds) in the absence of inhibitor (MTCAT+No inhibitor) or in the presence of BB94 (20 μM) or of the scFV clones (14 nM). […]
# [7] = target: T5, active wild type recombinant MT4-MMP; assay: Antibody specificity by Western blot; assay type: binding; settings: scFV 1 μg/ml
# Protocol: (§2) In detail, antibody specificity was assessed by Western blot. Recombinant MT4-MMP (1 μg) was incubated with purified scFV clones (1 μg/ml) that contain a myc tag. Membranes were first incubated with a monoclonal mouse anti-myc antibody (clone 9E10, Sigma M5546) (1/1000) and then with HRP conjugated anti-mouse antibody (FIG. 14 A).
# [8] = target: T6, MT4-MMP inactivated by mutation in its catalytic site (E249A); assay: Antibody specificity by Western blot; assay type: binding; settings: scFV 1 μg/ml
# Protocol: as §2
# MT3-MMP (MMP16) = target: T8, MT3-MMP (MMP16) (Homo sapiens, UniProt P51512); assay: Antibody specificity by Western blot; assay type: binding
# T8 construct: but not to MT1-MMP, MT3-MMP and MMP 2 catalytic domains
# T8 sequence (P51512 120-291 limits assumed, species assumed): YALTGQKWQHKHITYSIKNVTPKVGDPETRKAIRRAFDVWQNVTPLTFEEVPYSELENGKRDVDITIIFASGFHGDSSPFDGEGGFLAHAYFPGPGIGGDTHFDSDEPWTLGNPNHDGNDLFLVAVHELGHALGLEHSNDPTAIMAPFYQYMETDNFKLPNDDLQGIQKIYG
molecule,measurement,setting,value
N#C/C(=C\c1ccc(O)c(O)c1)C(=O)c1ccc(O)c(O)c1 [AG538],"effect on MT4-MMP-mediated mitogenic effect (cell proliferation, DNA content)",[1],No change
COc1cc2ncnc(Nc3cccc(Cl)c3)c2cc1OC [AG1478],"effect on MT4-MMP-mediated mitogenic effect (cell proliferation, DNA content)",[1],significantly reduced
CC(=O)c1c(C)c2cnc(Nc3ccc(N4CCNCC4)cn3)nc2n(C2CCCC2)c1=O [PD0332991],"effect on MT4-MMP-mediated mitogenic effect (cell proliferation, DNA content)",[1],inhibited
"CC(C)(C)n1nc(-c2ccc(Cl)cc2)c2c(N)ncnc21 [PP2, 4-amino-5-(4-chlorophenyl)-7-(t-butyl)pyrazol[3,4-d]pyrimidine]","effect on MT4-MMP-mediated mitogenic effect (cell proliferation, DNA content)",[1],No change
N#CC(=C(/N)Sc1ccccc1N)/C(C#N)=C(\N)Sc1ccccc1N [U0126],effect on proliferative rate in control cells,[2],without affecting the proliferative rate
same,"effect on MT4-MMP-mediated mitogenic effect (cell proliferation, DNA content)",[1],markedly inverted the proliferative phenotype
C#Cc1cccc(Nc2ncnc3cc(OCCOC)c(OCCOC)cc23)c1 [erlotinib],inhibition of proliferation of cancer cells (DNA content),"[1]; single treatment 1 μM, 3D Matrigel",partially inhibited; also recorded: reduced cell proliferation
O=c1c(-c2ccc(O)cc2)coc2cc(O)cc(O)c12 [genistein],"effect on MT4-MMP-mediated mitogenic effect (cell proliferation, DNA content)",[1],strongly inhibited
B1,recognition of MT1-MMP (MMP14),MT1-MMP (MMP14),do not recognize
same,"affinity / capacity to bind recombinant MT4-MMP, compared among the three scFV clones",[3],highest capacity to bind; also recorded: highest affinity
same,recognition of MMP2,MMP2,do not recognize
same,binding to wild-type MT4-MMP,[4],binds specifically
same,binding to inactive MT4-MMP (E249A),[5],binds specifically
same,inhibition of MT4-MMP enzymatic activity (neutralizing capacity),[6],able to inhibit; also recorded: inhibited completely
same,recognition of wild type recombinant MT4-MMP,[7],recognized specifically
same,recognition of MT4-MMP E249A mutant,[8],recognized specifically
same,recognition of MT3-MMP (MMP16),MT3-MMP (MMP16),do not recognize
same,reduction of cell proliferation (DNA content),"[1]; single treatment 20 μg/ml, 3D Matrigel",reduced cell proliferation
